Target: T1, OC2 (CUT-HOX) (human, UniProt O95948 330-485)
T1 sequence: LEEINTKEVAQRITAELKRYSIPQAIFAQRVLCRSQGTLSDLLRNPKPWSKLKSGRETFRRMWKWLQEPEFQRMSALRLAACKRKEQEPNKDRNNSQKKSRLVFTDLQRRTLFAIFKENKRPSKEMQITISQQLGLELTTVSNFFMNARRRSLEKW
Experiment: BLI

B1: PEG10 promoter duplex, biotinylated (dsDNA)
DNA 1: AGATCGATTTGC
DNA 2: GCAAATCGATCT
modifications: 5'-biotin on one strand
B1: binds.

— article doi:10.1101/2023.06.13.544830
